Test results as given in US20220298218A1 (ANTAG THERAPEUTICS, published 2022).
Where no end group is shown, it is not given here. The star is where a group is joined. C16 diacid = O=C(O)CCCCCCCCCCCCCCC(=O)*

Target: T1, human GIP receptor (human, UniProt P48546 22-466)
T1 sequence (looked up): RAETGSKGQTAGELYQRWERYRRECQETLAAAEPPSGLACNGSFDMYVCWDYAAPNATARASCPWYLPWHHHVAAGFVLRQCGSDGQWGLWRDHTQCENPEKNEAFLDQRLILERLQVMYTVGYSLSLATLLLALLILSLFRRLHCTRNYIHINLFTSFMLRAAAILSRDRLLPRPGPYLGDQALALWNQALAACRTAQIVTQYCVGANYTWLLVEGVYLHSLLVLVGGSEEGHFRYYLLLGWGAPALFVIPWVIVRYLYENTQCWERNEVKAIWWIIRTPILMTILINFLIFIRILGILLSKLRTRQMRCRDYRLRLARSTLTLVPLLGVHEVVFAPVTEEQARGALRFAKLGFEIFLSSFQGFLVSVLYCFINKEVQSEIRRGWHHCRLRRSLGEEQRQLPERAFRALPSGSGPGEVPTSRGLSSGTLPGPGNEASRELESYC
Test: cell-based or functional assay

B1: AT617 (peptide)
peptide: EGTFISDYSIAMDKIK(C16 diacid)QQDFVEWLLAQKPSSGAPPPS-OH
modifications: N-terminus assumed
SMILES: CC[C@H](C)[C@H](NC(=O)[C@H](CO)NC(=O)[C@H](Cc1ccc(O)cc1)NC(=O)[C@H](CC(=O)O)NC(=O)[C@H](CO)NC(=O)[C@@H](NC(=O)[C@H](Cc1ccccc1)NC(=O)[C@@H](NC(=O)CNC(=O)[C@@H](N)CCC(=O)O)[C@@H](C)O)[C@@H](C)CC)C(=O)N[C@@H](C)C(=O)N[C@@H](CCSC)C(=O)N[C@@H](CC(=O)O)C(=O)N[C@@H](CCCCN)C(=O)N[C@H](C(=O)N[C@@H](CCCCNC(=O)CCCCCCCCCCCCCCC(=O)O)C(=O)N[C@@H](CCC(N)=O)C(=O)N[C@@H](CCC(N)=O)C(=O)N[C@@H](CC(=O)O)C(=O)N[C@@H](Cc1ccccc1)C(=O)N[C@H](C(=O)N[C@@H](CCC(=O)O)C(=O)N[C@@H](Cc1c[nH]c2ccccc12)C(=O)N[C@@H](CC(C)C)C(=O)N[C@@H](CC(C)C)C(=O)N[C@@H](C)C(=O)N[C@@H](CCC(N)=O)C(=O)N[C@@H](CCCCN)C(=O)N1CCC[C@H]1C(=O)N[C@@H](CO)C(=O)N[C@@H](CO)C(=O)NCC(=O)N[C@@H](C)C(=O)N1CCC[C@H]1C(=O)N1CCC[C@H]1C(=O)N1CCC[C@H]1C(=O)N[C@@H](CO)C(=O)O)C(C)C)[C@@H](C)CC
cAMP agonism % Emax: 0%
cAMP antagonism: 0.794 nM
cAMP antagonism % inhib: 91%
cAMP antagonism pIC50: 9.1

B2: AT618 (peptide)
peptide: EGTFISDYSIALDKIK(C16 diacid)QQDFVNWLLAQKPSSGAPPPS-OH
modifications: N-terminus assumed
SMILES: CC[C@H](C)[C@H](NC(=O)[C@H](CO)NC(=O)[C@H](Cc1ccc(O)cc1)NC(=O)[C@H](CC(=O)O)NC(=O)[C@H](CO)NC(=O)[C@@H](NC(=O)[C@H](Cc1ccccc1)NC(=O)[C@@H](NC(=O)CNC(=O)[C@@H](N)CCC(=O)O)[C@@H](C)O)[C@@H](C)CC)C(=O)N[C@@H](C)C(=O)N[C@@H](CC(C)C)C(=O)N[C@@H](CC(=O)O)C(=O)N[C@@H](CCCCN)C(=O)N[C@H](C(=O)N[C@@H](CCCCNC(=O)CCCCCCCCCCCCCCC(=O)O)C(=O)N[C@@H](CCC(N)=O)C(=O)N[C@@H](CCC(N)=O)C(=O)N[C@@H](CC(=O)O)C(=O)N[C@@H](Cc1ccccc1)C(=O)N[C@H](C(=O)N[C@@H](CC(N)=O)C(=O)N[C@@H](Cc1c[nH]c2ccccc12)C(=O)N[C@@H](CC(C)C)C(=O)N[C@@H](CC(C)C)C(=O)N[C@@H](C)C(=O)N[C@@H](CCC(N)=O)C(=O)N[C@@H](CCCCN)C(=O)N1CCC[C@H]1C(=O)N[C@@H](CO)C(=O)N[C@@H](CO)C(=O)NCC(=O)N[C@@H](C)C(=O)N1CCC[C@H]1C(=O)N1CCC[C@H]1C(=O)N1CCC[C@H]1C(=O)N[C@@H](CO)C(=O)O)C(C)C)[C@@H](C)CC
cAMP agonism % Emax: 0%
cAMP antagonism: 3.98 nM
cAMP antagonism % inhib: 82%
cAMP antagonism pIC50: 8.4

B3: AT620 (peptide)
peptide: EGTFISDYSIAEDKIK(C16 diacid)QQDFVNWLLAQKPSSGAPPPS-OH
modifications: N-terminus assumed
SMILES: CC[C@H](C)[C@H](NC(=O)[C@H](CO)NC(=O)[C@H](Cc1ccc(O)cc1)NC(=O)[C@H](CC(=O)O)NC(=O)[C@H](CO)NC(=O)[C@@H](NC(=O)[C@H](Cc1ccccc1)NC(=O)[C@@H](NC(=O)CNC(=O)[C@@H](N)CCC(=O)O)[C@@H](C)O)[C@@H](C)CC)C(=O)N[C@@H](C)C(=O)N[C@@H](CCC(=O)O)C(=O)N[C@@H](CC(=O)O)C(=O)N[C@@H](CCCCN)C(=O)N[C@H](C(=O)N[C@@H](CCCCNC(=O)CCCCCCCCCCCCCCC(=O)O)C(=O)N[C@@H](CCC(N)=O)C(=O)N[C@@H](CCC(N)=O)C(=O)N[C@@H](CC(=O)O)C(=O)N[C@@H](Cc1ccccc1)C(=O)N[C@H](C(=O)N[C@@H](CC(N)=O)C(=O)N[C@@H](Cc1c[nH]c2ccccc12)C(=O)N[C@@H](CC(C)C)C(=O)N[C@@H](CC(C)C)C(=O)N[C@@H](C)C(=O)N[C@@H](CCC(N)=O)C(=O)N[C@@H](CCCCN)C(=O)N1CCC[C@H]1C(=O)N[C@@H](CO)C(=O)N[C@@H](CO)C(=O)NCC(=O)N[C@@H](C)C(=O)N1CCC[C@H]1C(=O)N1CCC[C@H]1C(=O)N1CCC[C@H]1C(=O)N[C@@H](CO)C(=O)O)C(C)C)[C@@H](C)CC
cAMP agonism % Emax: 0%
cAMP antagonism: 31.6 nM
cAMP antagonism % inhib: 83%
cAMP antagonism pIC50: 7.5

B4: AT623 (peptide)
peptide: EGTFISDYSIAMDKIK(C16 diacid)QQDFVEWLLAQAPSSGAPPPS-OH
modifications: N-terminus assumed
SMILES: CC[C@H](C)[C@H](NC(=O)[C@H](CO)NC(=O)[C@H](Cc1ccc(O)cc1)NC(=O)[C@H](CC(=O)O)NC(=O)[C@H](CO)NC(=O)[C@@H](NC(=O)[C@H](Cc1ccccc1)NC(=O)[C@@H](NC(=O)CNC(=O)[C@@H](N)CCC(=O)O)[C@@H](C)O)[C@@H](C)CC)C(=O)N[C@@H](C)C(=O)N[C@@H](CCSC)C(=O)N[C@@H](CC(=O)O)C(=O)N[C@@H](CCCCN)C(=O)N[C@H](C(=O)N[C@@H](CCCCNC(=O)CCCCCCCCCCCCCCC(=O)O)C(=O)N[C@@H](CCC(N)=O)C(=O)N[C@@H](CCC(N)=O)C(=O)N[C@@H](CC(=O)O)C(=O)N[C@@H](Cc1ccccc1)C(=O)N[C@H](C(=O)N[C@@H](CCC(=O)O)C(=O)N[C@@H](Cc1c[nH]c2ccccc12)C(=O)N[C@@H](CC(C)C)C(=O)N[C@@H](CC(C)C)C(=O)N[C@@H](C)C(=O)N[C@@H](CCC(N)=O)C(=O)N[C@@H](C)C(=O)N1CCC[C@H]1C(=O)N[C@@H](CO)C(=O)N[C@@H](CO)C(=O)NCC(=O)N[C@@H](C)C(=O)N1CCC[C@H]1C(=O)N1CCC[C@H]1C(=O)N1CCC[C@H]1C(=O)N[C@@H](CO)C(=O)O)C(C)C)[C@@H](C)CC
cAMP agonism % Emax: 0%
cAMP antagonism: 3.16 nM
cAMP antagonism % inhib: 98%
cAMP antagonism pIC50: 8.5

B5: AT621 (peptide)
peptide: EGTFISDYSIAKDKIK(C16 diacid)QQDFVNWLLAQKPSSGAPPPS-OH
modifications: N-terminus assumed
SMILES: CC[C@H](C)[C@H](NC(=O)[C@H](CO)NC(=O)[C@H](Cc1ccc(O)cc1)NC(=O)[C@H](CC(=O)O)NC(=O)[C@H](CO)NC(=O)[C@@H](NC(=O)[C@H](Cc1ccccc1)NC(=O)[C@@H](NC(=O)CNC(=O)[C@@H](N)CCC(=O)O)[C@@H](C)O)[C@@H](C)CC)C(=O)N[C@@H](C)C(=O)N[C@@H](CCCCN)C(=O)N[C@@H](CC(=O)O)C(=O)N[C@@H](CCCCN)C(=O)N[C@H](C(=O)N[C@@H](CCCCNC(=O)CCCCCCCCCCCCCCC(=O)O)C(=O)N[C@@H](CCC(N)=O)C(=O)N[C@@H](CCC(N)=O)C(=O)N[C@@H](CC(=O)O)C(=O)N[C@@H](Cc1ccccc1)C(=O)N[C@H](C(=O)N[C@@H](CC(N)=O)C(=O)N[C@@H](Cc1c[nH]c2ccccc12)C(=O)N[C@@H](CC(C)C)C(=O)N[C@@H](CC(C)C)C(=O)N[C@@H](C)C(=O)N[C@@H](CCC(N)=O)C(=O)N[C@@H](CCCCN)C(=O)N1CCC[C@H]1C(=O)N[C@@H](CO)C(=O)N[C@@H](CO)C(=O)NCC(=O)N[C@@H](C)C(=O)N1CCC[C@H]1C(=O)N1CCC[C@H]1C(=O)N1CCC[C@H]1C(=O)N[C@@H](CO)C(=O)O)C(C)C)[C@@H](C)CC
cAMP agonism % Emax: 0%
cAMP antagonism: 1.36 nM
cAMP antagonism % inhib: 93%
cAMP antagonism pIC50: 8.9

B6: AT622 (peptide)
peptide: EGTFISDYSIASDKIK(C16 diacid)QQDFVNWLLAQKPSSGAPPPS-OH
modifications: N-terminus assumed
SMILES: CC[C@H](C)[C@H](NC(=O)[C@H](CO)NC(=O)[C@H](Cc1ccc(O)cc1)NC(=O)[C@H](CC(=O)O)NC(=O)[C@H](CO)NC(=O)[C@@H](NC(=O)[C@H](Cc1ccccc1)NC(=O)[C@@H](NC(=O)CNC(=O)[C@@H](N)CCC(=O)O)[C@@H](C)O)[C@@H](C)CC)C(=O)N[C@@H](C)C(=O)N[C@@H](CO)C(=O)N[C@@H](CC(=O)O)C(=O)N[C@@H](CCCCN)C(=O)N[C@H](C(=O)N[C@@H](CCCCNC(=O)CCCCCCCCCCCCCCC(=O)O)C(=O)N[C@@H](CCC(N)=O)C(=O)N[C@@H](CCC(N)=O)C(=O)N[C@@H](CC(=O)O)C(=O)N[C@@H](Cc1ccccc1)C(=O)N[C@H](C(=O)N[C@@H](CC(N)=O)C(=O)N[C@@H](Cc1c[nH]c2ccccc12)C(=O)N[C@@H](CC(C)C)C(=O)N[C@@H](CC(C)C)C(=O)N[C@@H](C)C(=O)N[C@@H](CCC(N)=O)C(=O)N[C@@H](CCCCN)C(=O)N1CCC[C@H]1C(=O)N[C@@H](CO)C(=O)N[C@@H](CO)C(=O)NCC(=O)N[C@@H](C)C(=O)N1CCC[C@H]1C(=O)N1CCC[C@H]1C(=O)N1CCC[C@H]1C(=O)N[C@@H](CO)C(=O)O)C(C)C)[C@@H](C)CC
cAMP agonism % Emax: 14%
cAMP antagonism: 31.6 nM
cAMP antagonism % inhib: 77%
cAMP antagonism pIC50: 7.5

EGTFISDYSIALDKIKQQDFVNWLLAQKPSSGAPPPS (Nle at 14; K18: C16-diacid; C-term COOH) [AT619]
cAMP agonism % Emax: 0%
cAMP antagonism: 2.19 nM
cAMP antagonism % inhib: 87%
cAMP antagonism pIC50: 8.7
